In patent US20230227508A1, “SPLIT INTEIN-BASED SELECTION FOR PEPTIDE BINDERS” (priority 2020, published 2023) one finds Kd data, which are given here for 1 molecule.

The assay deals with Expi293F human cell-derived and purified SARS-CoV-2 RBD (RBD296-531) (SARS-CoV-2), P0DTC2.

B1: AMK-1057 (purified, PapB-modified 14 aa thioether-cyclized peptide) (peptide)
peptide: GVCKYGEWCEIVEI
modifications: not checked
Molecule B1 gave a Kd of 990 nM.

In general, Kd refers to the equilibrium constant for the complex coming apart. Read a low Kd as higher affinity.
